# Where two headings read alike, the source gives them in different places.
# T1: human CD21 protein (human, UniProt P20023 21-971, limits assumed)
# T1 construct: the Biacore set-up is not described; also called huCD21; CR2
# T1 sequence (looked up): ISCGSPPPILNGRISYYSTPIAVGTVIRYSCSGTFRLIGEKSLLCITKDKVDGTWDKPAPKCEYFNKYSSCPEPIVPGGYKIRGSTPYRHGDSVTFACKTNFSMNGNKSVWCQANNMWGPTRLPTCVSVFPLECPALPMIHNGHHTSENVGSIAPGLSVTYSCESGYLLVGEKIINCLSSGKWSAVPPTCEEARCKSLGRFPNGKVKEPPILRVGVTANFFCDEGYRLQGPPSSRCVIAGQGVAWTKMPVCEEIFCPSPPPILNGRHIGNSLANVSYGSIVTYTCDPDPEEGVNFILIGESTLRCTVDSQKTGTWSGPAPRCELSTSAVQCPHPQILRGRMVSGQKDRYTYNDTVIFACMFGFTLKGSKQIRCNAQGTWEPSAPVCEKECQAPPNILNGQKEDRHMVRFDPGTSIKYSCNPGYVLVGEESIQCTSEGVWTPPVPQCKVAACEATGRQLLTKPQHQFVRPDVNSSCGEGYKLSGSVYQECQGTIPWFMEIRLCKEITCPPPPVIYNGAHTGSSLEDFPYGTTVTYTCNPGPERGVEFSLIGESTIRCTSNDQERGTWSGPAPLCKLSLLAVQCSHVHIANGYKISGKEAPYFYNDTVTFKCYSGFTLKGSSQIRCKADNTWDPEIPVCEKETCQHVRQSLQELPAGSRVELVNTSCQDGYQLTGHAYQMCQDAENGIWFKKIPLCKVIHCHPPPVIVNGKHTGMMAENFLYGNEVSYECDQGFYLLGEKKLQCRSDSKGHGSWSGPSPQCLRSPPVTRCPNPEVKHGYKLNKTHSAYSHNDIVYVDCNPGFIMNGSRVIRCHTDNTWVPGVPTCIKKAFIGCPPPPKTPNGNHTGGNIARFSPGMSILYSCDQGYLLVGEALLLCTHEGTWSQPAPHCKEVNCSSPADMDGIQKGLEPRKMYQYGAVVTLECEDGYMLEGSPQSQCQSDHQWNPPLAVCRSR
# T2: human CD21 on Raji B cells or primary B cells (human, UniProt P20023 21-1033)
# T2 sequence (looked up): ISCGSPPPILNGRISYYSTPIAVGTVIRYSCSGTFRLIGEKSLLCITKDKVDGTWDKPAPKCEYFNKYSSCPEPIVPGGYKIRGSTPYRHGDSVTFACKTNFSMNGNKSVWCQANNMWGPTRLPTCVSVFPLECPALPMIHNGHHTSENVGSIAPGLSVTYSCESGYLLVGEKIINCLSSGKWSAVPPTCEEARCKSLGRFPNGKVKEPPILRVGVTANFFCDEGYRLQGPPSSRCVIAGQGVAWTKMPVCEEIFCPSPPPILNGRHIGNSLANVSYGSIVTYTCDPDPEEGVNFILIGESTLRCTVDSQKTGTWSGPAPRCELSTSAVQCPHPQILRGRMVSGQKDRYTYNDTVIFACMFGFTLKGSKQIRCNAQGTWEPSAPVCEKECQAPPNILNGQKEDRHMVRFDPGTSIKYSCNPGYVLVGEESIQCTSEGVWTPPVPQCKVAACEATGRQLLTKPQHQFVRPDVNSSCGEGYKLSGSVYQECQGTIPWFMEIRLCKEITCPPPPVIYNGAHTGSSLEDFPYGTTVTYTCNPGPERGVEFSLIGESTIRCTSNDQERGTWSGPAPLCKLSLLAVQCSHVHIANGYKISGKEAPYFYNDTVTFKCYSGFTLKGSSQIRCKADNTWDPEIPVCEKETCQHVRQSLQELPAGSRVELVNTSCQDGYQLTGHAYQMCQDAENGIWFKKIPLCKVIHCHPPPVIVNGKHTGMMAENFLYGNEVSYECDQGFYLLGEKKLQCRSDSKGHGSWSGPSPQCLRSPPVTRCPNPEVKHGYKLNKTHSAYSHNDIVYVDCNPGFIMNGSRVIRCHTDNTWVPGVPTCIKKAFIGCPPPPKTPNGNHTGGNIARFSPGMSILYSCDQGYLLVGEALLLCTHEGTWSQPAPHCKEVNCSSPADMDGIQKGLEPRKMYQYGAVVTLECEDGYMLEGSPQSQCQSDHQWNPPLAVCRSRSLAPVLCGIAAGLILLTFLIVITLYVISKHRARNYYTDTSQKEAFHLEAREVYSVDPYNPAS
# Columns and labels:
# human CD21 protein [1] = target: T1, human CD21 protein; experiment: SPR (Biacore), KD against Ab89
# [2] = target: cyno CD21 protein (cynomolgus monkey); experiment: SPR (Biacore)
# insulin = insulin (UniProt P01308); experiment: polyreactivity ELISA on coated insulin; third number of the cell
# Chain of insulin (P01308 25-54 limits assumed, chain 1 of 2): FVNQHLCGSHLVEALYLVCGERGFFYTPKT
# Chain of insulin (P01308 90-110 limits assumed, chain 2 of 2): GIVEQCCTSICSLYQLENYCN
# [3] = target: T2, human CD21 on Raji B cells or primary B …; experiment: cell-based or functional assay
# human CD21 protein [4] = target: T1, human CD21 protein; experiment: SPR (Biacore)
# human CD21 protein [5] = target: T1, human CD21 protein; experiment: SPR (Biacore); remark: listed apart in the source
# human CD21 protein [6] = target: T1, human CD21 protein; experiment: affinity KD; method not restated (Biacore elsewhere)
# [7] = target: cyno CD21 protein (cynomolgus monkey); experiment: SPR (Biacore), KD against Ab89
# [8] = target: cyno CD21 protein (cynomolgus monkey); experiment: SPR (Biacore); remark: listed apart in the source
# [9] = target: T2, human CD21 on Raji B cells or primary B …; experiment: cell-based or functional assay; remark: listed apart in the source
# [10] = target: cyno CD21 protein (cynomolgus monkey); experiment: affinity KD; method not restated (Biacore elsewhere)
# [11] = target: T2, human CD21 on Raji B cells or primary B …; experiment: Raji B cell binding
# [12] = target: T2, human CD21 on Raji B cells or primary B …; experiment: competition with human C3d on primary B cells
# human CD21 protein [13] = target: T1, human CD21 protein; experiment: SPR (Biacore); remark: listed apart in the source
# [14] = target: T2, human CD21 on Raji B cells or primary B …; experiment: competition with human C3d on Raji B cells
# human CD21 protein [15] = target: T1, human CD21 protein; experiment: affinity KD; method not restated (Biacore elsewhere); remark: listed apart in the source
fold affinity improvement over parental Ab89 (human CD21 protein [1]),Kd [2],insulin-binding score (ratio to buffer well) (insulin),"pAKT inhibition, IC50, nM; Primary B cells [3]","pAKT inhibition, IC50, nM; Raji B cells [3]",Kd (human CD21 protein [4]),Kd (human CD21 protein [5]),Kd (human CD21 protein [6]),fold affinity improvement over parental Ab89 [7],Kd [8],"pAKT inhibition, IC50, nM; Primary B cells [9]","pAKT inhibition, IC50, nM; Raji B cells [9]",Kd [10],EC50 [11],IC50 [12],Kd (human CD21 protein [13]),IC50 [14],Kd (human CD21 protein [15]),Binder
1780 fold,0.23 nM,2,7.94 nM,14.9 nM,0.0399 nM,0.039 nM,0.039 nM,92 fold,0.233 nM,7.94 nM,14.9 nM,0.23 nM,–,–,–,–,–,"Ab423 (antibody, human IgG1, kappa, V domains shown, IgG1) VH: QVQLVQSGAEVKKPGSSVKVSCKASGGTFSSYAISWVRQAPGQGLEWMGRIIPILGIANYAQKFQGRVTITADKSTSTAYMELSSLRSEDTAVYYCAREDDISGYYQDWGQGTLVTVSS VL: EIVMTQSPATLSVSPGERATLSCRAGQSINSYLAWYQQKPGQAPRLLIYDASTRATGIPARFSGSGSGTEFTLTISSLQSEDFAVYYCQQYEYWYTFGQGTKLEIKR"
–,–,–,–,–,–,–,–,–,21.4 nM,–,–,–,6.37 nM,1.22 nM,71.1 nM,2.13 nM,–,"Ab89 (antibody, human IgG1, kappa, V domains shown, IgG1; also called germlined derivative of Ab15) VH: QVQLVQSGAEVKKPGSSVKVSCKASGGTFSSYAISWVRQAPGQGLEWMGRIIPILGIANYAQKFQGRVTITADKSTSTAYMELSSLRSEDTAVYYCAREDDSSGYYQDWGQGTLVTVSS VL: EIVMTQSPATLSVSPGERATLSCRAGQSINSHLAWYQQKPGQAPRLLIYDASTRATGIPARFSGSGSGTEFTLTISSLQSEDFAVYYCQQYEYWYTFGQGTKLEIKR"
–,–,1,–,–,–,–,0.01 nM,–,–,–,–,0.05 nM,–,–,–,–,0.01 nM,"Ab646 (antibody, human IgG1, kappa, V domains shown, IgG1) VH: QVQLVQSGAEVKKPGSSVKVSCKASGGELQTLAISWVRQAPGQGLEWMGRIIPILGIANYAQKFQGRVTITADKSTSTAYMELSSLRSEDTAVYYCAREEDISGYYQDWGQGTLVTVSS VL: EIVMTQSPATLSVSPGERATLSCRAGQSISSYLAWYQQKPGQAPRLLIYDASSRATGIPARFSGSGSGTEFTLTISSLQSEDFAVYYCQQYEYWYSFGQGTKLEIKR"
–,–,1,–,–,–,–,0.01 nM,–,–,–,–,0.15 nM,–,–,–,–,0.01 nM,"Ab648 (antibody, human IgG1, kappa, V domains shown, IgG1) VH: QVQLVQSGAEVKKPGSSVKVSCKASGGELSTYAISWVRQAPGQGLEWMGRIIPILGIANYAQKFQGRVTITADKSTSTAYMELSSLRSEDTAVYYCAREEDISGYYQDWGQGTLVTVSS VL: EIVMTQSPATLSVSPGERATLSCRAGQSISSYLAWYQQKPGQAPRLLIYDASSRATGIPARFSGSGSGTEFTLTISSLQSEDFAVYYCQQYEYWYSFGQGTKLEIKR"

# From patent US20240376225A1 (CHILDREN S MEDICAL CENTER, published 2024)
